Measurements published in PMC12095048 (Oncogene, 2025).

What was measured:
[1] = target: His-CHK2 (WT), full length (UniProt O96017 1-543); experiment: pull-down
[2] = target: His-HIF-1α (WT), full length (UniProt Q16665 1-826); experiment: pull-down
Sequence of His-HIF-1α (WT), full length (Q16665 whole entry): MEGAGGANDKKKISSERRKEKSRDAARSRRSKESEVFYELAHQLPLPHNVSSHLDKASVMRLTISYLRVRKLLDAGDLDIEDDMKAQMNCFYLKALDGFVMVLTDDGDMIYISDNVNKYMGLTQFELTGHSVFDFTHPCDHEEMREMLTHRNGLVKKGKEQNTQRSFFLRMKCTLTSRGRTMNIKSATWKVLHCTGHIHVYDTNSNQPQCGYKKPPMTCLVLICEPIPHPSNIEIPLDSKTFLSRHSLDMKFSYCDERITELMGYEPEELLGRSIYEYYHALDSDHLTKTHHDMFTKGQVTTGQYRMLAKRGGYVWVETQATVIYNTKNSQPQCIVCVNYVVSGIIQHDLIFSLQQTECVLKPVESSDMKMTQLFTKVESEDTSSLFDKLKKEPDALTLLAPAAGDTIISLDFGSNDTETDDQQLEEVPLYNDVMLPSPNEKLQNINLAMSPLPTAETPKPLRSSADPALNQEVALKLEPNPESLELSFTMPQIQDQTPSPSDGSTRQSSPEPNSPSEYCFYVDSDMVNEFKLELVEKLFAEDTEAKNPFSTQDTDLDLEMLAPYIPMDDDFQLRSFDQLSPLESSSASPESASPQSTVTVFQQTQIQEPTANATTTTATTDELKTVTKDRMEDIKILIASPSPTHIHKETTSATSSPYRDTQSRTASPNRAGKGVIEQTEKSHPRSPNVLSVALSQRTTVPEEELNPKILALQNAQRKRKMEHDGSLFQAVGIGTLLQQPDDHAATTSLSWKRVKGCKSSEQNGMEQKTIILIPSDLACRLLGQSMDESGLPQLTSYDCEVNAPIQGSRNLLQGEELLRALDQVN

Row | binding result [1] | binding result [2] | Binder
1 | binds |  | GST-HIF-1α (aa 81–200) (domain or fragment) not shown
2 | binds |  | GST-HIF-1α (aa 400–575) (domain or fragment, UniProt Q16665 400-575, looked up) LAPAAGDTIISLDFGSNDTETDDQQLEEVPLYNDVMLPSPNEKLQNINLAMSPLPTAETPKPLRSSADPALNQEVALKLEPNPESLELSFTMPQIQDQTPSPSDGSTRQSSPEPNSPSEYCFYVDSDMVNEFKLELVEKLFAEDTEAKNPFSTQDTDLDLEMLAPYIPMDDDFQLR
3 |  | binds | GST-CHK2 (aa 1–193) (domain or fragment, UniProt O96017 1-193, looked up) MSRESDVEAQQSHGSSACSQPHGSVTQSQGSSSQSQGISSSSTSTMPNSSQSSHSSSGTLSSLETVSTQELYSIPEDQEPEDQEPEEPTPAPWARLWALQDGFANLECVNDNYWFGRDKSCEYCFDEPLLKRTDKYRTYSKKHFRIFREVGPKNSYIAYIEDHSGNGTFVNTELVGKGKRRPLNNNSEIALSL
